# According to paper PMC3441419, “The Redox-Sensing Regulator Rex Modulates Central Carbon Metabolism, Stress Tolerance Response and Biofilm Formation by Streptococcus mutans”:
# T1: rRex (Streptococcus mutans UA159?) (UniProt Q8DU91)
# T1 sequence: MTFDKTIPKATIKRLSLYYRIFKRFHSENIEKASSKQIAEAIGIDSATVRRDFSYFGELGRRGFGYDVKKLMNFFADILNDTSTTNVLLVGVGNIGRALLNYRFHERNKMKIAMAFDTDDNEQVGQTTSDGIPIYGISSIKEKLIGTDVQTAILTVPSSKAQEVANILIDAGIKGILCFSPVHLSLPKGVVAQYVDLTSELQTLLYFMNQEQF
# T2: rRex (UniProt Q8DU91 1-213)
# T2 sequence: T1 sequence
# B1: mutated adhE Rex-box oligo m148Fw/m148Rv (dsDNA)
# DNA 1: ATTTTTAACAGTAAAGGGTTACAATGACAAG
# DNA 2: CTTGTCATTGTAACCCTTTACTGTTAAAAAT
# B2: adhE1 cold oligo (dsDNA)
# DNA 1: TTTTGTGAAAAGGGTTACAATG
# DNA 2: CATTGTAACCCTTTTCACAAAA
# B3: adhE Rex-box oligo 148Fw/148Rv (dsDNA)
# DNA 1: ATTTTTTTGTGAAAAGGGTTACAATGACAAG
# DNA 2: CTTGTCATTGTAACCCTTTTCACAAAAAAAT
# Assays:
# [1] = molecular target: T1, rRex (Streptococcus mutans UA159?); assay: EMSA; conditions: 20 mM Tris pH 8.0, 1 mM EDTA, 75 mM KCl, 2 mM DTT, 10% glycerol, 10 min at room temperature (+15 min after NAD+/NADH); 5% native PAGE
# rRex [2] = molecular target: T2, rRex; assay: EMSA; 20 mM Tris pH 8.0, 1 mM EDTA, 75 mM KCl, 2 mM DTT, 10% glycerol, 10 min at room temperature (+15 min after NAD+/NADH); 5% native PAGE; conditions: protein: recombinant; tags: N-terminal His (pQE30); blunt
# rRex [3] = molecular target: T2, rRex; assay: competition; unlabeled competitor against biotinylated adhE1, dose-dependent; 20 mM Tris pH 8.0, 1 mM EDTA, 75 mM KCl, 2 mM DTT, 10% glycerol, 10 min at room temperature (+15 min after NAD+/NADH); 5% native PAGE; conditions: protein: recombinant; tags: N-terminal His (pQE30); blunt
Molecule,binding [1],binding result (rRex [2]),other results
ATGACAGTTCCTCGCATTTTTAATTTATGTTATAATTATAAGTGAAAAACATCACATTTGAAAAGCCTTACAAATATCTTAAAAAATGACTTTTTATGACTTTTAGATGGGAGGTTTGCTTAGT (double strand) [frdC promoter],binds,,
ACAAGCCCATACTGAGTTTGGACATTAAAGCTCAGCAGGGCTATGATTATGATGTCATTATCATCGGCGGCGGTGTTTCAGGTGTGACTCTAGCC (double strand) [gshR promoter],binds,,
B1,,no binding,
B2,,,binding result (rRex [3]): binds
B3,,binds,
